The results in this text go back to paper PMC11533276, “Critical role of ROCK1 in AD pathogenesis via controlling lysosomal biogenesis and acidification” (Translational Neurodegeneration, 2024).

The target of this assay is T1, TFEB (purified protein coupled to the SPR chip) (UniProt P19484 1-476).
T1 chain: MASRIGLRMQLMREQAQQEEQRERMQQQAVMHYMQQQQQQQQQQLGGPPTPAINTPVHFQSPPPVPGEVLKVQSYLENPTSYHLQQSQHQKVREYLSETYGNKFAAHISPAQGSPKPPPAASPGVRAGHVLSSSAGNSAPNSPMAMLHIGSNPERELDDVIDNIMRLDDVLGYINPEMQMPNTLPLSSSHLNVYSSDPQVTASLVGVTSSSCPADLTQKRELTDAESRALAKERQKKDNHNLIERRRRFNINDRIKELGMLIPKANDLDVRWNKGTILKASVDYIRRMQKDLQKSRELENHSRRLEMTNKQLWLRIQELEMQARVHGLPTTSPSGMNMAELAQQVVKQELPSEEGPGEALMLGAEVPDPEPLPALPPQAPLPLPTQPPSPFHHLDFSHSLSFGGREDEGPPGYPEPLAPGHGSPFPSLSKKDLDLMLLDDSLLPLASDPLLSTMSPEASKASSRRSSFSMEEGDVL
Kind of assay: SPR; TFEB immobilised on a CM5 chip by amine coupling; ROCK1 injected at 312.5 to 5000 nM for 90 s; Biacore T200. The following applies: both partners purified. In general terms: In SPR one partner is held on a chip, and binding of the other changes the refractive index at the surface.

B1: ROCK1 (protein injected in SPR) (enzyme)
chain: STGDSFETRFEKMDNLLRDPKSEVNSDCLLDGLDALVYDLDFPALRKNKNIDNFLSRYKDTINKIRDLRMKAEDYEVVKVIGRGAFGEVQLVRHKSTRKVYAMKLLSKFEMIKRSDSAFFWEERDIMAFANSPWVVQLFYAFQDDRYLYMVMEYMPGGDLVNLMSNYDVPEKWARFYTAEVVLALDAIHSMGFIHRDVKPDNMLLDKSGHLKLADFGTCMKMNKEGMVRCDTAVGTPDYISPEVLKSQGGDGYYGRECDWWSVGVFLYEMLVGDTPFYADSLVGTYSKIMNHKNSLTFPDDNDISKEAKNLICAFLTDREVRLGRNGVEEIKRHLFFKNDQWAWETLRDTVAPVVPDLSSDIDTSNFDDLEEDKGEEETFPIPKAFVGNQLPFVGFTYYSNRRYLSSANPNDNRTSSNADKSLQESLQKTIYKLEEQLHNEMQLKDEMEQKCRTSNIKLDKIMKELDEEGNQRRNLESTVSQIEKEKMLLQHRINEYQRKAEQENEKRRNVENEVSTLKDQLEDLKKVSQNSQLANEKLSQLQKQLEEANDLLRTESDTAVRLRKSHTEMSKSISQLESLNRELQERNRILENSKSQTDKDYYQLQAILEAERRDRGHDSEMIGDLQARITSLQEEVKHLKHNLEKVEGERKEAQDMLNHSEKEKNNLEIDLNYKLKSLQQRLEQEVNEHKVTKARLTDKHQSIEEAKSVAMCEMEKKLKEEREAREKAENRVVQIEKQCSMLDVDLKQSQQKLEHLTGNKERMEDEVKNLTLQLEQESNKRLLLQNELKTQAFEADNLKGLEKQMKQEINTLLEAKRLLEFELAQLTKQYRGNEGQMRELQDQLEAEQYFSTLYKTQVKELKEEIEEKNRENLKKIQELQNEKETLATQLDLAETKAESEQLARGLLEEQYFELTQESKKAASRNRQEITDKDHTVSRLEEANSMLTKDIEILRRENEELTEKMKKAEEEYKLEKEEEISNLKAAFEKNINTERTLKTQAVNKLAEIMNRKDFKIDRKKANTQDLRKKEKENRKLQLELNQEREKFNQMVVKHQKELNDMQAQLVEECAHRNELQMQLASKESDIEQLRAKLLDLSDSTSVASFPSADETDGNLPESRIEGWLSVPNRGNIKRYGWKKQYVVVSSKKILFYNDEQDKEQSNPSMVLDIDKLFHVRPVTQGDVYRAETEEIPKIFQILYANEGECRKDVEMEPVQQAEKTNFQNHKGHEFIPTLYHFPANCDACAKPLWHVFKPPPALECRRCHVKCHRDHLDKKEDLICPCKVSYDVTSARDMLLLACSQDEQKKWVTHLVKKIPKNPPSGFVRASPRTLSTRSTANQSFRKVVKNTSGKTS
Turning to B1, the Kd (usually the equilibrium constant for the complex coming apart) was found to be 1610 nM.
